Source: paper PMC2936243 (Journal of neurochemistry, 2010)

Target: native rat α7 nicotinic acetylcholine receptor (hippocampus) (rat (endogenous in hippocampus)) (UniProt Q05941)
Assay: radioligand binding

Substance: Alexa Fluor 546-ArIB[V11L;V16A] (peptide)
- IC50: 7.9 nM
- Ki: 1.8 nM
